Measurements taken from patent US20190225703A1 (INNATE PHARMA, published 2019).
Positions count from the first letter of the chain named.

Assays:
[1] = biological target: T1, cynomolgus CD73 expressed at the cell surface (cynomolgus); assay: flow cytometry titration on cynomolgus-CD73-expressing cell line
T1 construct: whole, on cells; Recombinant cell line expressing cynomolgus CD73; also called cynoCD73
Description: (§1) 10⁵ cells resuspended in PBS/0.2% BSA/0.02% NaN3 (named “staining buffer”) are distributed into round bottom 96W-microplates. Dose-range of anti-CD73 antibodies was added to the plates and cells are incubated for 45 min at 4° C. Cells were washed three times in staining buffer by spinning plates at 400 g for 3 min at 4° C. PE-coupled goat anti-mouse or goat anti-human IgG Fc fragment secondary antibodies (Beckman Coulter) diluted in staining buffer were added to the cells and plates are incubated for 30 additional minutes at 4° C. Cells were washed three times as described above and analyzed on an Accury C6 flow cytometer equipped with an HTFC plate reader.
(§2) Median of fluorescence vs. antibodies concentration was plotted on graphs and EC50 is calculated using GraphPad Prism program.

[2] = biological target: T2, mouse CD73 expressed at the cell surface (mouse, UniProt Q61503 29-551); assay: flow cytometry titration on a cell line expressing mouse CD73
T2 construct: whole, on cells; Recombinant cell line expressing mouse CD73; also called moCD73
T2 sequence (looked up): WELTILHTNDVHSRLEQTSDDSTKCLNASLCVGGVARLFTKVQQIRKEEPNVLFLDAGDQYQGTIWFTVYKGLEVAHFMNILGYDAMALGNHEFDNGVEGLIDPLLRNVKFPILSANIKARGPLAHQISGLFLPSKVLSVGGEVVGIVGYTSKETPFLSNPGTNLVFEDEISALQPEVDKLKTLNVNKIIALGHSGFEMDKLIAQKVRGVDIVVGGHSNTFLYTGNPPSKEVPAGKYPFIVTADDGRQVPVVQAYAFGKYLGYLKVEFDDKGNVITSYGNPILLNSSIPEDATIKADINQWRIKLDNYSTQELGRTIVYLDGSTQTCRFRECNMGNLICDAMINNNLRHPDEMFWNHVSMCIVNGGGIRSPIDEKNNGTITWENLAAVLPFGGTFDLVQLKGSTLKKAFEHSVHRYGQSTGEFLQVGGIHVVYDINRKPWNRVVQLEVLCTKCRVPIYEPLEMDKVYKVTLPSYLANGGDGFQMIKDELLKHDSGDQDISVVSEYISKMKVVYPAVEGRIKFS
Description: as §1, §2

human CD73 mutant 2 = biological target: T3, human CD73 mutant 2 (human, UniProt P21589 27-549); assay: flow cytometry titration on HEK-293T cells transfected with CD73 mutant 2
T3 construct: Transfected in HEK-293T cells; The cell prints A1071, read as A107I
T3 chain: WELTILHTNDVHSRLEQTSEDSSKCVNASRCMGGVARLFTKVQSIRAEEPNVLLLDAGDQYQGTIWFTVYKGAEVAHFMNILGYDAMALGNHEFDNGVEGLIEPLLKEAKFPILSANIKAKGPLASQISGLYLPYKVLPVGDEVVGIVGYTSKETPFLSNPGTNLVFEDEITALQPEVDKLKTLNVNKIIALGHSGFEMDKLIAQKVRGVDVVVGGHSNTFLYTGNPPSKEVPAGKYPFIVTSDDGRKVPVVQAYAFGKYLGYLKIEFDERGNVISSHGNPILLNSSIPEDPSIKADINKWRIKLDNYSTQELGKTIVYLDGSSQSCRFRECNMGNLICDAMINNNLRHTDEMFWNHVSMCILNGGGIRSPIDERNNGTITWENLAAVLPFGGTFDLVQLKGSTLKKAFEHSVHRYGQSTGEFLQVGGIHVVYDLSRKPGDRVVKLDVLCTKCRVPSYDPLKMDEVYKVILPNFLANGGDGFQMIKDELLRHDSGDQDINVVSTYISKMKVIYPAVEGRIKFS
Description: (§3) Anti-CD73 antibodies are tested for their binding to each mutant by flow cytometry. A first experiment is performed to determine antibodies that lose their binding to one or several mutants at one concentration. To confirm a loss of binding, titration of antibodies is done on antibodies for which binding seemed to be affected by the CD73 mutations (1-0.1-0.01-0.001 μg/ml).

[3] = biological target: T4, human CD73 (ecto-5'-nucleotidase) expressed at the cell surface (human, UniProt P21589 27-549); assay: flow cytometry titration on HEK-293T cells transfected with wild type human CD73
T4 construct: Used for huCD73-expressing recombinant cell lines, MDA-MB-231 cells (endogenous CD73), HEK-293T cells with wild type CD73, and primary T and B cells; also called huCD73; wild type CD73
T4 sequence: T3 chain with S44Q, A47R, E48A, I81A, G83R
Description: as §3

B1: antibody 7H10 (antibody, human IgG1, V domains shown)
VH: DVQLQESGPGLVKPSQSLSLTCTVTGYSITSDYAWNWIRQFPGNKLEWMGYIIYSGSTSYNPSLNSRISITRDTSKNQFFLQLNSVTTEDTATYYCAREAYLYFDYWGQGTTLTVSS
VL: DIQMTQTTSSLSASLGDRVTISCRASQDINNYLNWYQQKPDGTVKLLIYYTSRLHSGVPSRFSGSGSGTDYSLTISNLEREDVATYFCQQGNTLPWTFGGGTKLEIK
EC50 [1]: 0.335 µg/mL
binding result [2]: no binding (tested: 10 µg/ml)
binding result (human CD73 mutant 2): no binding (tested: 10 µg/ml)
EC50 (read off the curve) [3]: ~0.2 µg/mL
